Experimental data published in the RNAGym collection of RNA variant scans (doi:10.1073/pnas.2313332121).

B1: TPR t1 (parent)
chain: GACCAAUCUGCCCUCAGAGCUCGAGAACAUCUUCGGAUGCAGAGGAGGCAGGCUUCGGUGGCGCGAUAGCGCCAACGUCCUCAACCUCCAAUGCAUCCCACCACAUGAUGAUGCCUGAAGAGCCUUGGUUUUUUG

Variants of: B1
Experiment: polymerase ribozyme fitness, log enrichment relative to wild type (log ratio); higher = more active; in vitro selection for triplet polymerase activity
Outline: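 For each subunit of a heterodimeric triplet polymerase ribozyme, a mutant library was built by PCR and transcribed, then taken through a single in vitro selection round in triplicate. Selection involved annealing to a biotinylated primer, the partner subunit and triplets, incubation frozen at −7 °C, gel excision of extended constructs, capture on streptavidin beads and RT-PCR. Genotypes were retained after Illumina sequencing of inputs and outputs only with ≥10 input reads and ≥1 read in each output. Fitness is defined as the logarithm of a genotype's enrichment relative to wild-type enrichment, using inverse-variance-weighted averages across replicates, with the logarithm taken to base 2.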

In order of falling “polymerase ribozyme fitness (log ratio)” value:
1. U7G C8G U106A C115A G127A  2.21
2. C8A G36U U112A G127U  2.16
3. C8A C11U A121U  2.14
4. C8A A74C G120U  2.1
5. U7G C79U C124A  2.08
6. C8A C123G  2.06
7. U7G G45C C88A C115A  2.03
8. U7G C123A  1.97
9. C8A C124U  1.95
10. C8A C53A G69U A119G U131A U134G  1.54
11. U7G C34U G69U C123U U133C  1.52
12. U7G C70A U87A A121G  1.36
13. C8A A37U C124A  1.28
14. C8A C104A G120A  1.08
15. U7G C8G G44A G120A C124A  1.06
16. C8A G44U C123U  0.898
17. U7G A41G A74U U106A U130C  0.791
18. C8A C49U A100U G120A  0.731
19. U7G A50G  0.715
20. U7G G71U  0.698
21. U7G A118G  0.686
22. U7C U116C  0.603
23. U7G A74U A118U  0.595
24. C8A C86A  0.557
25. C8A C53G C70U C97U U112A C124U  0.47
26. U7G  0.469
27. C8A C86U  0.466
28. U7G C49A  0.309
29. C8A C72G  0.254
30. U7G U9A G60U C82U  0.122
31. U7G C11U C97U  0.101
32. C8A C86U G110A G120U  0.0948
33. U7G C70U A83U U131A  0.0577
34. U7G G61A  0.0552
35. U7G C53G A90G  0.0166
36. U7C U131A  0.00611
37. U7G C12A C15A C49A U112A  -0.0165
38. C8A C13G  -0.0841
39. C8A C94A  -0.131
40. C8A C13G G61U A84U  -0.177
41. U7G C70U  -0.201
42. C8A G44U  -0.208
43. C8A C12A U78G  -0.297
44. C8A C70U C72U  -0.317
45. U7G G52U  -0.337
46. C8A A37U C86U  -0.337
47. U7G C12G C13U A46U  -0.346
48. U7G A16G A18C G117U  -0.355
49. C8A A74U C104A C124G  -0.357
50. C8A C49A C86U G93U C94U C123A  -0.367
51. U7G A111C U112A C123G  -0.393
52. U7G G36A A50C  -0.431
53. C8A C70U C89A G120A  -0.458
54. U7G G69C  -0.478
55. C8A C13U U55G G93A  -0.498
56. U7C U78C C85A C124G  -0.586
57. C8A G36C G60U  -0.605
58. C8A C20U A37G  -0.63
59. U7G G39U C49U  -0.696
60. C8A G44U G52A C72A  -0.705
61. C8A A16G C56A C73A  -0.741
62. U7G G113A  -0.761
63. U7G A27G G48C  -0.78
64. U7G G10A C49U U112G G135U  -0.92
65. C8A C12U G45U C62U C94G  -1.01
66. C8A G44C U106G  -1.03
67. C8A C82A A90C  -1.03
68. C8A C56A C72G  -1.07
69. C8A C49U C73G  -1.1
70. C8A C98U  -1.12
71. C8A C53A U92A A121U  -1.12
72. C8A A29U  -1.13
73. C8A G45A A90U G117A  -1.14
74. C8A C89A  -1.24
75. C8A C86G G113A  -1.25
76. C8A C86G  -1.3
77. C8A C12U C86G C104A  -1.31
78. U7G C12U C20A  -1.34
79. U7G C15A A16G C53A C64U  -1.35
80. U7G G39A G58A G69C C97U  -1.38
81. C8A A29U U55G  -1.42
82. U7G C115U  -1.47
83. C8A G36A G57A G61A C72G  -1.48
84. C8A C12U A16U C40A C62U U87A  -1.51
85. U7G G52A C85A U87G  -1.55
86. U7G G52C A90C U130A  -1.64
87. U7G G69U C76G A95U  -1.74
88. C8A C72U U78A G93C C101A  -1.75
89. U7G C28U G48A  -1.75
90. U7G A16C U55G C88U A95U  -1.79
91. C8A C34A A37U C104U  -1.95
92. C8A A41U A84G  -2.05
93. U7G G10C G45A G47A U59G A66C G77A  -2.15
94. U7G G48A C70A C101A  -2.19
95. C8A G17A C73A  -2.25
96. U7G C72A A105U U125G  -2.26
97. U7G G69A  -2.34
98. U7G A18G U38G A50C C53U G113U  -2.37
99. U7G C12A C101G U116C  -2.39
100. C8A C114G  -2.41
101. U7G C73G C89A C104U A119U  -2.52
102. C8A A18G U32A G61A C123A  -2.56
103. C8A C15G A29U  -2.66
104. C8A G39A G44C C82U C86U G127C  -2.71
105. C8A A26U A46C C56U  -2.74
106. C8A A43G C70U  -2.74
107. C8A C20A G71U  -2.77
108. C8A C12A C34U C56G G77A  -2.77
109. C8A A29U A90C  -2.87
110. C8A A43U G71C  -2.95
111. U7G G10A A41G C73G C79A C80A C115A  -3.06
112. C8A G36U G42A  -3.09
113. C8A A24G G113A  -3.12
114. U7G U21A A26G G47U C123U U129A U133G  -3.24
115. U7G U14C A29G G42U U59A C123U  -3.3
116. C8A C40A A43G G60A  -3.37
117. U7G G42C G45A G61C  -3.42
118. C8A C28G C53A U106G  -3.51
119. U7C U32C U106A G113U  -3.53
120. C8A C40A A43G G60C  -3.55
121. U7G G10C G45U C62A C115U  -3.58
122. U7G U38G U54C C56U G110A G122U  -3.58
123. U7G C11U A18C G45U C53A G57U C72U  -3.58
124. U7G C70U A105G  -3.6
125. C8A C49U A74C U78C C85A A91U C94U  -3.74
126. U7G G110C  -3.83
127. C8A A26U C89G C94U C124G U125G G127U  -3.87
128. C8A G51U  -3.89
129. C8A C12A C34U C56G G71A G77A  -4.02
130. C8A C97A  -4.07
131. U7G G44A G63C U92A U125A  -4.07
132. C8A C34U  -4.29
133. U7G A26G C34U G113A  -4.39
134. U7G C40U G69C C99U  -4.48
135. U7G C20U A27U G47C G113A  -4.53
136. C8A A16C G39U C102A  -4.53
137. U7G C12A U32A C73U G113A G120U  -4.58
138. C8A C15A A29U G42U C72G C114U  -4.6
139. C8A C34A G42U  -4.61
140. C8A A50C C97G  -4.72
141. U7G C8A C15U G36A C56G C70G U78C C82G U106A  -4.94
142. U7G C31U G60A  -4.97
143. U7G C34U G58A  -5.02
144. U7G A18G C20A A43G C72G  -5.03
145. U7G U21C U59G G63A U116G C124G U131A  -5.19
146. U7G G107U A121U G128C  -5.22
147. C8A G23A A66G G69U C104U A118G  -5.28
148. U7G G45C C72G C82A C98A  -5.33
149. C8A C53A C82A A108U  -5.69
150. C8A C64A  -5.69
151. C8A C12G G23U G71U C86U G120C  -5.74
152. C8A C13U C20A C40A C49A A111G G117A U130C  -5.75
153. C8A C12G C15U A18U C70U G110U U125G  -5.75
154. C8A A68G C73G U78G C101U U112A  -5.78
155. C8A G44C G57C G117C U126A  -5.88
156. C8A A24C C31U U38A G45U C56G C70G C80A A111U G117C  -6.01
157. C8A G51C C53A A66U C88A C114A  -6.04
158. C8A C12U A43U G51U C56U U81C C85A C97A A111G  -6.23
159. U7G C11G U33A A90G C101A  -6.24
160. C8A C34U C53U C62G U109A  -6.27
161. U7G C64U C73G C89A C104U A119U  -6.4
162. C8A A18U G45C A75U U109A  -6.43
163. U7G G45C G77A C82A C98A  -6.73
164. C8A G17C G63U U96C C97A G113U  -6.74
165. U7G C31G U38A G69A C80U C101G G120A  -7.18
166. C8A C56U G69C U112A G120A  -7.42
167. C8A A41C G44U C62U C99U A111U G127A  -7.45
